In US20080095824A1, “Delivery of drugs from sustained release devices implanted in myocardial tissue or in the pericardial space” (Durect Corporation, priority 2001, published 2008):
Like-named read-outs stand apart in the source and are kept apart here.

Legend:
[1] = rat, in vivo
Protocol: (§1) Minipumps, filled with solutions of the substances to be tested, were primed in saline at 37° C. at least 4 hours, prior to connection to the catheter. Before installing pumps, pericardial fluid and orbital sinus blood was sampled, to serve as blanks. 7 days after pump installment, rats were sacrificed by exsanguination under pentobarbitone and pericardial fluid and blood collected. To check for possible loss of substances during infusion, remaining pump contents were analyzed. […] Doses were chosen to achieve concentrations that were readily measurable but without pharmacological effects (risk of bleeding in the case of heparin); similar doses were applied systemically and intrapericardially to be able to make a good comparison between the two routes of administration. Solvent was PBS, except for Texas Red FGF-2 and cortisol which were dissolved in a 10 mg/ml solution of RSA in PBS.

[2] = Pharmacokinetics after intrapericardial or intra-arterial bolus injection; type: in vivo, rats; conditions: mean ± SE
Protocol: Immediately after implantation of the pericardial catheter, rats (still under anesthesia) were provided either with a catheter in the right femoral artery essentially as described (Smits et al., 1982). Rats were allowed to recover at least 2 days before experimentation> One hour before start of the experiment, 20 μl pericardial fluid was withdrawn using a Hamilton 1705 (Hamilton Bonaduz, Bonaduz, Switzerland) syringe and 50 μl of saline were injected into pericardial space to check the integrity of the pericardial catheter. Injections of volumes up to 0.2 ml were previously shown to be without hemodynamic effects (Veelken et al., 1990). Blood (0.15-0.25 ml) was collected in a syringe, containing a minimal volume of heparin (Organon Teknika, Boxtel, the Netherlands). Pericardial fluid was diluted 10 times in PBS and the blood was centrifuged for 20 minutes at 3500 rpm to obtain plasma. These samples served as blanks for later analyses. Experiments in which substances were applied intrapericardially were started by a 50 μl bolus injection of the test substances into pericardial space, followed by 20 μl saline to flush the catheter. If substances were applied systemically, experiments were started by a 100 μl bolus injection of the substances and subsequent injection of 300 μl saline into the femoral artery catheter. FITC rat IgG, (10 mg/ml), Texas Red RSA (10 mg/ml), and FITC heparin (1 mg/ml) were dissolved in PBS.
Pericardial fluid (20 μl) and blood samples were taken at various time points after injection. To substitute withdrawn pericardial fluid, 20 μl of saline was injected into pericardial space immediately after sampling. After every sample, the femoral artery catheter was flushed with 0.3 to 0.4 ml saline and filled with heparinized (5-10 IU/ml) saline. Plasma and pericardial fluid samples were stored at −20° C. until analysis.
Data were standardized for bodyweights. Pharmacokinetic analysis of the data for each animal was conducted using the GPAD (GraphPAD Software, San Diego, Calif.) software package. Data were fitted to the exponential equation Ct=A.e^−αt+B. e^−βt of one-(i.e. A is fixed at 0) and two compartment models. Fits were compared using F-tests and data were log transformed for model judgement.

[3] = Time course of infusion into the pericardial space; type: in vivo, male Wistar rats; conditions: for plasma concentration over time: intrapericardial infusion, 7-day period (bFGF: day 3 through day 7)
Protocol: Substances were administered to the pericardial space of male Wistar rats weighing 250-300 grams by infusion via catheter for 1 week using an Alzet™ osmotic minipump at a volume rate of about 1 μl/hour. Blood and pericardial fluid samples were taken at various time points and the concentration of administered substances was measured fluorimetrically (for fluorescently labeled compounds) or by HPLC (for steroids). Concentration of fluorescently labeled compounds is expressed as fluorescent units/ml fluid.

[4] = In vitro release from SAIB depot of Example 2A; type: physicochemical; conditions: SAIB:benzyl benzoate:DL-PLG 83:12:5 depot, 500 μL in PBS pH 7.4, 37° C.
Protocol: In this embodiment sotalol (an anti-arrhythmic) is delivered from a depot comprising sucrose acetate isobutyrate (SAIB). A formulation is prepared by mixing SAIB (Eastman Chemical Co.) and benzyl benzoate (Aldrich Chemical Co.) and ploy (DL-lactide-co-glycolide) (DL-PLG) or DL-poly(lactide) (DLPL) in a ratio of 83:12:5 (weight basis) and stirring until a homogeneous mixture is achieved. 10 μg of sotalol is added to 500 μL of the SAIB:benzyl benzoate:DLPLG formulation.
The final depot formulation is prepared by passing the mixture repeatedly between a pair of 5 ml syringes equipped with needles. Multiple passes are performed until a solution is achieved. The final concentration of sotalol in the depot is 0.02 μg/ul.
To determine, in vitro, the release of […] from the formulation, 500 μL of the depot is placed in 750 μL of dissolution buffer (PBS, 0.01 M, pH 7.4 with sodium azide) in a 1.5 mL Eppendorf microcentrifuge tube. The formulations are incubated at 37° C. with no agitation. The entire dissolution buffer is removed and replaced with fresh buffer at the desired sampling times (0.25, 0.5, 1, 2, 3, 4, 5, 6, 24 hr and daily thereafter). The samples are assayed for protein concentration by ELISA. The release rate of drug from this depot is about 0.3 μg per day.

in vivo = conditions: rat
Protocol: as §1

[5] = pericardial fluid after intrapericardial bolus injection
[6] = plasma after intra-arterial bolus injection
[7] = 7-day intrapericardial infusion (bFGF: days 3 to 7)

Compound | Cl (clearance, Dose/AUC) [2, 5] [µL/min/kg] | Vc (initial central compartment volume) [2, 5] [µL/kg] | t1/2α [2, 5] [min] | t1/2β [2, 5] [min] | Cl (clearance, Dose/AUC) [2, 6] [µL/min/kg] | Vc (initial central compartment volume) [2, 6] [µL/kg] | t1/2β [2, 6] [min] | ratio of concentration in pericardial fluid to concentration in plasma [3, 7] | plasma concentration over time [3] | Peric/plasma ratio [1] | Peric/plasma ratio ([1]; iv) | further results
Cortisol carbonic acid |  |  |  |  |  |  |  |  |  |  |  | clearance derived from steady-state concentration (infusion dose rate/steady state concentration) [1]: 30.8 ± 3.52 µL/kg/min
Texas Red RSA: Texas Red-labelled rat serum albumin | 3.72 ± 0.90 | 892 ± 207 | 46.8 ± 14 | 589 ± 133 | 40.5 ± 2.76 | 34734 ± 1761 | 1132 ± 300 | 9-15 | remained at a constant, low level | 8.11 ± 2.60 (4) | 0.98 ± 0.26 (4) | t1/2α [2, 6]: 89 ± 14.8 min; concentration in the pericardial fluid ([3]; day 1 after the start of intrapericardial infusion): about 375 FU/ml; concentration in the pericardial fluid ([3]; day 3, remained at this level through day 7): about 190 FU/ml
CC(C)NCC(O)COc1cccc2ccccc12 (centres unmarked) [propranolol] |  |  |  |  |  |  |  |  |  |  |  | release rate of drug from depot [4]: about 0.3 μg per day
Texas Red FGF-2: Texas Red-labelled fibroblast growth factor-2 (basic FGF) | 8.05 ± 0.33 | 497 ± 70 | 17.3 ± 5.5 | 102 ± 19 | 84.2 ± 10.3 | 39990 ± 923 | 338 ± 31 | 2-10 | remained at a low level | 6.85 ± 1.61 (4) | 1.01 ± 0.38 (2) | concentration in the pericardial fluid over time ([3]; between day 3 and day 7 after the start of infusion): rose gradually
C[C@]12CCC(=O)C=C1CC[C@@H]1[C@@H]2[C@@H](O)C[C@@]2(C)[C@H]1CC[C@]2(O)C(=O)CO [Cortisol] |  |  |  |  |  |  |  | 12-50 | remained at a constant, low level |  |  | Kp ([3]; male, Wistar, rat, pericardial fluid and plasma, other: intrapericardial infusion, 7-day intrapericardial infusion (bFGF: days 3 to 7), read-out: ratio of concentration in pericardial fluid to concentration in plasma): 12 to 52; Peric. Fluid concentration ([1]; 7 days): 1.59 ± 0.44; Plasma concentration ([1]; 7 days): 0.11 ± 0.03; Kp at 7 days (in vivo; Peric/plasma ratio): 14.4 ± 0.55; Kp at 7 days (in vivo; concentrations in plasma lower than in pericardial fluid): ≥ 7
